First the molecules themselves.
B1: R692I: TP-DNAP1 variant (protein)
chain: MDYKDKALNDLRNVYADFDSLPLDFRQILIKDRATLLQKEDVEKKILERQEDAKKYAEYLKQSEIPERISLPNIKRHKGVSISFEETSEDMVLEPRPFIFDGLNIRCFRRETIFSLKNKILNMVKESSSFKNVSRQSVSFMYFKIFNKGKVIASTKSVNIYEDKIDERLEDLCNNFDDVLKKIIDVTYGYESLFVSETYSYVIFYAKSIYFPQPRCVNNWGNNIPNILTFDSFKLFTANKNNVSCIKQCSRFLWQKDFNTLEEMIEYKNGNICIVTPQLHINDVRDIKSFNDIRLYSESPIKTFSVIDNTITYLFYFKEHLGVIFNITKSRHDRRVTKFSPLSKFSDVKNITVCFDIESYFDPEKESNQVNIPFICCASIIYNKVIGNIVDFEGRDCVAQMIEYVVDICGELNISSVELIAHNGGGYDFHYILSSMYNPAAIKNILIRNNSFISFNFAHDGVKFSVKDSYSFLLCSLANASKAFLNEETFKKTDFPHHDLKTADDLYKVYKEWSSVNTEINHVVEKEKLLITSEHIVNFTKNDKSKTLIEWSKDYCRNDVLVLSKVWLEFKNAVEDIFNCELVDQTMTLAGLSYKLFQANMPFDVELRHPNKEDYFNMREALIGGRCISVNGIYKDVLCLDVKSLYPASMAFYDQPYGSFKRVSSRPKDELGIYYVRVTPNRNNKSNFFPIISHNKITYNNFEESTYIAWYTNVDIDIGLSEGHNIEYIPFDSYGNIGYSWSKKGKIFEKYIKDVLYKLKIKYEKQNNKVKRNVIKIIMNSLWGKFAQKWVNFEYFIKSEDDIDFESEEAYKIWDTDFMLIKKIKESTYSSKPIQNGVFTLSWARYHMKSIWDAGAKEGAECIYSDTDSIFVHKEHFKKNAKFMLNGLKVPIIGSEVGQLELECEFDKLLCAGKKQYMGFYTYFQDGKPCIKEKKRFKGIPSNYIIPELYAHLLSGADKEAKIQFLKFRREWGSVKGYIENKTVKAT
B2: K696M: TP-DNAP1 variant (protein)
chain: B1 chain with I692R, K696M
B3: K696G: TP-DNAP1 variant (protein)
chain: B1 chain with I692R, K696G
B4: N695F: TP-DNAP1 variant (protein)
chain: B1 chain with I692R, N695F
B5: H694T: TP-DNAP1 variant (protein)
chain: B1 chain with I692R, H694T
B6: T698A: TP-DNAP1 variant (protein)
chain: B1 chain with I692R, T698A
B7: N695H: TP-DNAP1 variant (protein)
chain: B1 chain with I692R, N695H
B8: K696S, E704V: TP-DNAP1 variant (protein)
chain: B1 chain with I692R, K696S, E704V
B9: E298G: TP-DNAP1 variant (protein)
chain: B1 chain with E298G, I692R
B10: S693R: TP-DNAP1 variant (protein)
chain: B1 chain with I692R, S693R
B11: R692W: TP-DNAP1 variant (protein)
chain: B1 chain with I692W
B12: S693Q: TP-DNAP1 variant (protein)
chain: B1 chain with I692R, S693Q
B13: T698L: TP-DNAP1 variant (protein)
chain: B1 chain with I692R, T698L
B14: R692K: TP-DNAP1 variant (protein)
chain: B1 chain with I692K
B15: N695Q: TP-DNAP1 variant (protein)
chain: B1 chain with I692R, N695Q
B16: K696T: TP-DNAP1 variant (protein)
chain: B1 chain with I692R, K696T
B17: N695E: TP-DNAP1 variant (protein)
chain: B1 chain with I692R, N695E
B18: N695S: TP-DNAP1 variant (protein)
chain: B1 chain with I692R, N695S
B19: K696C: TP-DNAP1 variant (protein)
chain: B1 chain with I692R, K696C
B20: R692F, T706E: TP-DNAP1 variant (protein)
chain: B1 chain with I692F, T706E
B21: E298R: TP-DNAP1 variant (protein)
chain: B1 chain with E298R, I692R
B22: R692V: TP-DNAP1 variant (protein)
chain: B1 chain with I692V
B23: K696Y: TP-DNAP1 variant (protein)
chain: B1 chain with I692R, K696Y
B24: R692F: TP-DNAP1 variant (protein)
chain: B1 chain with I692F
B25: H694I: TP-DNAP1 variant (protein)
chain: B1 chain with I692R, H694I

Positions count from the first letter of the chain named. Numbers in names are those of the source.

In this assay the test system is p1. Briefly: p1 copy number by p1-encoded mKate2 fluorescence. It is filed as cell-based, S. cerevisiae. As to conditions: OR-Y24, measured in triplicate. The method in brief: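 Steps: transform TP-DNAP1 variant into OR-Y24; passage until w.t. p1 displaced; dilute 1:10,000 and grow to saturation in triplicate; measure p1-encoded mKate2 fluorescence; convert to copy number via linear qPCR-based calibration. Four high-copy variants were checked directly by qPCR.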
For the molecule B1, the “Mean fold-increase over w.t. (p1 copy number)” value (from here on “Mean fold-increase”) worked out at 1.99 fold. Consider B2, for which the “Mean fold-increase” value is given as 1.71 fold. Take B3: the “Mean fold-increase” value was 2.11 fold. The same measure for B4: 1.44 fold; for B5: 1.92 fold; for B6: 2.02 fold. Regarding B7, the “Mean fold-increase” value is 1.76 fold. Consider B8, for which the “Mean fold-increase” value worked out at 1.86 fold.

As to B9, the “Mean fold-increase” value was found to be 2.64 fold. Regarding B10, the “Mean fold-increase” value is given as 2.09 fold.

B11: the “Mean fold-increase” value worked out at 1.97 fold.

For B12, the “Mean fold-increase” value amounted to 2.22 fold. Then B13, with 2 fold. For B14, the “Mean fold-increase” value came to 1.88 fold.

Take B15: the “Mean fold-increase” value is on record as 1.68 fold. Then B16, with 2.12 fold.

In the case of B17, the “Mean fold-increase” value is recorded as 2.34 fold.

As to B18, the “Mean fold-increase” value worked out at 1.82 fold.

Take B19: the “Mean fold-increase” value turned out to be 1.87 fold. Then B20, with 1.89 fold; and B21, with 2.6 fold; and B22, with 2.29 fold. The same measure for B23: 1.49 fold. Consider B24, for which the “Mean fold-increase” value came out at 2.6 fold. For the molecule B25, the “Mean fold-increase” value came out at 1.78 fold.

These data come from patent US20230242902A1, “A HIGHLY ERROR-PRONE […] R[…] FOR TARGETED CONTINUOUS EVOLUTION IN VIVO” (The Regents of the University of California, priority 2017, published 2023).
